Key:
[1] = target: proteasome β2 subunit (trypsin-like site) in human cells and cell extracts (human) (UniProt Q99436); experiment: cell-based or functional assay
[2] = target: proteasome β2 subunit (trypsin-like site) in human cells and cell extracts (human) (UniProt Q99436); experiment: competition with activity-based probe in living HEK-293 cells, 4 h; Tr-L site
[3] = target: caspase-like site (β1 subunit) of yeast 20S proteasome (S. cerevisiae) (UniProt P38624); experiment: cell-based or functional assay
[4] = target: trypsin-like site (β2 subunit) of 26S proteasomes purified from rabbit muscle (rabbit) (UniProt G1SWK8); experiment: cell-based or functional assay
[5] = target: chymotrypsin-like site (β5 subunit) of 26S proteasomes purified from rabbit muscle (rabbit) (UniProt G1T4Q9); experiment: cell-based or functional assay
[6] = target: proteasome β5 subunit (chymotrypsin-like site) in human cells and cell extracts (human) (UniProt P28074); experiment: competition with activity-based probe in living HEK-293 cells, 4 h; Chym-L site
[7] = target: proteasome β5 subunit (chymotrypsin-like site) in human cells and cell extracts (human) (UniProt P28074); experiment: cell-based or functional assay
[8] = target: caspase-like site (β1 subunit) of 26S proteasomes purified from rabbit muscle (rabbit); experiment: cell-based or functional assay

Sequence of proteasome β5 subunit (chymotrypsin-like site) in human cells and cell extracts (human) (P28074 60-263): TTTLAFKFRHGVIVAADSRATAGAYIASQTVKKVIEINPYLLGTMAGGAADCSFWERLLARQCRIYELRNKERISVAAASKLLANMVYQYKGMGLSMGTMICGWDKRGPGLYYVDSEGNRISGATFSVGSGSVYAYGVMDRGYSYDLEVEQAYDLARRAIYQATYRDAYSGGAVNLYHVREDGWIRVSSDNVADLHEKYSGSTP
Sequence of proteasome β2 subunit (trypsin-like site) in human cells and cell extracts (human) (Q99436 44-277): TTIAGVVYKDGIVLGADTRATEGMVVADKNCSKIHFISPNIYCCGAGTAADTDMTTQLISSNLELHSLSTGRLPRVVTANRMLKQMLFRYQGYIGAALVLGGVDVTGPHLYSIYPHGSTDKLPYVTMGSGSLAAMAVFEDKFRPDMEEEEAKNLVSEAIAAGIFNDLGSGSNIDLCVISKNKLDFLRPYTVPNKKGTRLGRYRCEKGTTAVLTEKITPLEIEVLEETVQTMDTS
Sequence of chymotrypsin-like site (β5 subunit) of 26S proteasomes purified from rabbit muscle (rabbit) (G1T4Q9 entry or part of it): as the sequence (P28074 60-263) above, with E197D counted along it
Sequence of trypsin-like site (β2 subunit) of 26S proteasomes purified from rabbit muscle (rabbit) (G1SWK8 entry or part of it): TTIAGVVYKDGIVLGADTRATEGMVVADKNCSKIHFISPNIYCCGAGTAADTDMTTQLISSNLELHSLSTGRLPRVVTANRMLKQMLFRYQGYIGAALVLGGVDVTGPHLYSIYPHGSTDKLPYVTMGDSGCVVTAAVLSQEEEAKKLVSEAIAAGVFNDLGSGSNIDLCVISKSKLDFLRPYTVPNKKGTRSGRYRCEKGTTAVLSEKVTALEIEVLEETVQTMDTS
Sequence of caspase-like site (β1 subunit) of yeast 20S proteasome (S. cerevisiae) (P38624 20-215): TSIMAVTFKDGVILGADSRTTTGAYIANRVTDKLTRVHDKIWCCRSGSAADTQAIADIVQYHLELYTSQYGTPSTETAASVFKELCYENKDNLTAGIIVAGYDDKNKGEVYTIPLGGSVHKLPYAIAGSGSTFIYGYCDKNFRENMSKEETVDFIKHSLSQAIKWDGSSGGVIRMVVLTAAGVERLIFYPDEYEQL

NC-022 (HMB-Val-Ser-Arg-ek) (peptide)
IC50 (µM) for sites: Tr-L; NCI-H929 cells, 6 h, PROTEASOMEGLO [1]: 0.9 µM
IC50 (µM) for sites: Tr-L; RPMI-8226 cells, 6 h, PROTEASOMEGLO [1]: 24 µM
inhibition of the trypsin-like sites at 3 µM NC-022 within 4-6 hours, NCI-H929 cells [1]: 90%
inhibition of trypsin-like activity 5 hours after NC-022 addition, NCI-H929 and KMS-12-BM cells [1]: > 90%
inhibition of trypsin-like activity after a 6-hour incubation, MM cell lines [1]: > 90%

N3-Phe-Phe(4-CH2NH2)-Leu-Phe(4-CH2NH2)-VS (52) (peptide)
IC50 [2]: 50 µM
inhibition of caspase-like sites of yeast 20S proteasome [3]: > 200 µM
IC50 (µM) for sites: Tr-L [4]: 0.0066 µM
IC50 (µM) for sites: Chym-L [5]: 3.9 µM
IC50 [6]: > 50 µM

carfilzomib (peptide)
Inhibition of active sites (% control): Chymotrypsin-like sites, 1 h; KMS-12-BM, 11 nM carfilzomib [7]: 75%
Inhibition of active sites (% control): Chymotrypsin-like sites, 1 h; KMS-12-BM, 33 nM carfilzomib [7]: 90%
Inhibition of active sites (% control): Chymotrypsin-like sites, 1 h; KMS-12-BM, 100 nM carfilzomib [7]: 95%
Inhibition of active sites (% control): Chymotrypsin-like sites, 1 h; KMS-12-BM, 300 nM carfilzomib [7]: 97%
Inhibition of active sites (% control): Chymotrypsin-like sites, 1 h; KMS-12-BM, 900 nM carfilzomib [7]: 98%
Inhibition of active sites (% control): Chymotrypsin-like sites, 1 h; NCI-H929, 3.7 nM carfilzomib [7]: 14%
Inhibition of active sites (% control): Chymotrypsin-like sites, 1 h; NCI-H929, 11 nM carfilzomib [7]: 39%
Inhibition of active sites (% control): Chymotrypsin-like sites, 1 h; NCI-H929, 33 nM carfilzomib [7]: 75%
Inhibition of active sites (% control): Chymotrypsin-like sites, 6 h -NC-022; KMS-12-BM, 11 nM carfilzomib [7]: 67%
Inhibition of active sites (% control): Chymotrypsin-like sites, 6 h -NC-022; KMS-12-BM, 33 nM carfilzomib [7]: 97%
Inhibition of active sites (% control): Chymotrypsin-like sites, 6 h -NC-022; KMS-12-BM, 100 nM carfilzomib [7]: 97%
Inhibition of active sites (% control): Chymotrypsin-like sites, 6 h -NC-022; KMS-12-BM, 300 nM carfilzomib [7]: 97%
Inhibition of active sites (% control): Chymotrypsin-like sites, 6 h -NC-022; KMS-12-BM, 900 nM carfilzomib [7]: 97%
Inhibition of active sites (% control): Chymotrypsin-like sites, 6 h -NC-022; NCI-H929, 3.7 nM carfilzomib [7]: 65.5%
Inhibition of active sites (% control): Chymotrypsin-like sites, 6 h -NC-022; NCI-H929, 11 nM carfilzomib [7]: 89%
Inhibition of active sites (% control): Chymotrypsin-like sites, 6 h -NC-022; NCI-H929, 33 nM carfilzomib [7]: 95%
Inhibition of active sites (% control): Trypsin-like sites, 1 h; KMS-12-BM, 11 nM carfilzomib [1]: -3%
Inhibition of active sites (% control): Trypsin-like sites, 1 h; KMS-12-BM, 33 nM carfilzomib [1]: 0%
Inhibition of active sites (% control): Trypsin-like sites, 1 h; KMS-12-BM, 100 nM carfilzomib [1]: 18%
Inhibition of active sites (% control): Trypsin-like sites, 1 h; KMS-12-BM, 300 nM carfilzomib [1]: 49%
Inhibition of active sites (% control): Trypsin-like sites, 1 h; KMS-12-BM, 900 nM carfilzomib [1]: 75%
Inhibition of active sites (% control): Trypsin-like sites, 1 h; NCI-H929, 3.7 nM carfilzomib [1]: -7%
Inhibition of active sites (% control): Trypsin-like sites, 1 h; NCI-H929, 11 nM carfilzomib [1]: 0%
Inhibition of active sites (% control): Trypsin-like sites, 1 h; NCI-H929, 33 nM carfilzomib [1]: 17%
Inhibition of active sites (% control): Trypsin-like sites, 6 h -NC-022; KMS-12-BM, 11 nM carfilzomib [1]: 5%
Inhibition of active sites (% control): Trypsin-like sites, 6 h -NC-022; KMS-12-BM, 33 nM carfilzomib [1]: 45%
Inhibition of active sites (% control): Trypsin-like sites, 6 h -NC-022; KMS-12-BM, 100 nM carfilzomib [1]: 62%
Inhibition of active sites (% control): Trypsin-like sites, 6 h -NC-022; KMS-12-BM, 300 nM carfilzomib [1]: 69%
Inhibition of active sites (% control): Trypsin-like sites, 6 h -NC-022; KMS-12-BM, 900 nM carfilzomib [1]: 72%
Inhibition of active sites (% control): Trypsin-like sites, 6 h -NC-022; NCI-H929, 3.7 nM carfilzomib [1]: 3%
Inhibition of active sites (% control): Trypsin-like sites, 6 h -NC-022; NCI-H929, 11 nM carfilzomib [1]: 39%
Inhibition of active sites (% control): Trypsin-like sites, 6 h -NC-022; NCI-H929, 33 nM carfilzomib [1]: 46%

HMB-Val-Ser-Phe(4-NH2)-VS (49) (peptide)
IC50 (µM) for sites in 26S proteasomes: Casp-L [8]: 23 µM
IC50 (µM) for sites in 26S proteasomes: Tr-L [4]: 0.11 µM
IC50 (µM) for sites in 26S proteasomes: Chym-L [5]: 0.04 µM

Reference: patent US20130102527A1
